One data set has as its target WT hERG (Homo sapiens, UniProt Q12809). Particulars: for Isochronal percentage of hERG block (IhERG tail): terfenadine 100 nM, thioridazine 100 nM, dofetilide 10 nM, chloroquine 1 µM, ketoconazole 3 µM, mean ± SEM. The method, then:
(§1) For transient transfection experiments, 24 hr after plating cells out, cells were transiently transfected with 0.5 µg of the F656V hERG construct using Lipofectamine^TM LTX (Invitrogen) according to the manufacturer's instructions. […] Cells were plated onto small sterilized glass coverslips 6 hr after transfection and recordings were made after at least 24 hr incubation at 37°C. Successfully transfected cells were identified using Dynabeads® (Invitrogen). All experimental data for the F656V hERG mutant channel were obtained from cells from a minimum of two transfections.
(§2) Recordings of hERG current (IhERG) and were made using an Axopatch 200 amplifier (Axon Instruments) and a CV201 head‐stage. Between 70%–80% of pipette series resistance was compensated. Voltage‐clamp commands were generated using “WinWCP” (John Dempster, Strathclyde University).
The A(x)1 and B(x)1 values were derived from Equation 1. […] Time courses of IhERG inhibition were fitted using either a single (Equation 3) exponential decay fit of the forms:(3) Y=Y^0-Plateau∗exp-K∗X+Plateau.
IhERG “tail” magnitude was measured relative to instantaneous current at −40 mV elicited by the brief (50 ms) depolarizing step that preceded the voltage command to +20 mV in the absence and presence of the drug. […] We also assessed the effects of drug block on IhERG time constants of deactivation. Tail currents on repolarization to −40mV were fitted using a biexponential to derive the fast τ1 and slow τ2 time constants of deactivation in control and after drug application.
Background: Block of hERG is tested as a sign of cardiac risk.

A further data set deals with F656V hERG (Homo sapiens, UniProt Q12809, F656V). Description: Whole-cell patch-clamp recording of IhERG in HEK 293 cells transiently transfected with F656V hERG at 37°C. The method, then:
The F656V hERG mutation (Lees‐Miller, Duan, Teng, & Duff, 2000) was generated using the QuickChange® site‐directed mutagenesis kit (Stratagene). In brief, a pair of complementary oligonucleotide primers containing the mutation (forward primer sequence 5′[…]3′ and reverse primer sequence 5′ […]3′, synthesized by Sigma‐Genosys) was used in a PCR reaction (95°C for 1 min, 60°C for 1 min, 68°C for 16 min for 18 cycles) with hERG in a modified pcDNA3.0 vector as a DNA template. A DpnI digest of the PCR mix was then performed for 1 hr at 37°C. Competent DH5α Escherichia coli (Invitrogen) were transformed using standard procedures. The mutation was confirmed by sequencing of the entire open reading frame (Eurofins MWG Operon).
as §1, §2
For orientation: The patch-clamp technique gives a direct electrical read-out from membranes.

Where [1] appears, read: 30 nM BeKm-1, absence of erythromycin.
Where [2] appears, read: 30 nM BeKm-1 in the maintained presence of 3 µM erythromycin.

Read-outs that look alike come from different tables or passages of the source. No end group written: not given here.

`CCN(CC)CCCC(C)Nc1ccnc2cc(Cl)ccc12` (stereo not drawn) [Chloroquine, chloroquine]: the “Isochronal percentage of hERG block (IhERG tail)” value at WT hERG (0 µM erythromycin) is recorded as 48.4 ± 3.9 (n = 5) %; on WT hERG (preincubation with 3 µM erythromycin), 70.8 ± 5.3 (n = 5) %; at WT hERG (preincubation with 30 µM erythromycin), 77.8 ± 0.6 (n = 4) %. Further, at WT hERG (pretreatment with low concentrations of erythromycin (≤30 µM)), the “nature of interaction with erythromycin pretreatment on hERG block” value was “strong synergism”.
Consider “BeKm‐1: peptide (scorpion) toxin, in house Fmoc-synthesized, externally acting hERG blocker (RPTDIKCSESYQCFPVCKSRFGKTNGRCVNGFCDCF; ends and bridges not checked; cysteine pairing not given here; UniProt Q9BKB7 22-57, looked up)”, for which, in the data set with WT hERG, the “% of IhERG block at steady state” value is 51.4 ± 4.6%, the “WT IhERG tail block” value was 46.8 ± 5.0%, the “reduction of WT IhERG tail” value turned out to be 52.2 ± 3.4% and the “time course of WT hERG block” value was “delayed”. For the same compound, in the data set with F656V hERG (setting [1]), the “reduction of F656V IhERG” value is 74.5 ± 1.6% and the “thalf of F656V IhERG inhibition” value was 14.2 ± 3.3 s. Moreover, in the data set with F656V hERG (setting [2]), the “block of F656V IhERG at steady state” value was found to be 69.4 ± 5.1% and the “thalf of F656V IhERG inhibition” value is given as 20.7 ± 4.6 s.

The record behind these values is article PMC7061092 (Physiological Reports, 2020).
